Results on four molecules are retold here after patent publication US20180230214A1 (Memorial Sloan Kettering, published 2018).

Numbering of substitutions follows the chain as printed.

B1: m906 anti-CD56 Fab (Fab, V domains shown)
VH: EVQLVQSGAEVKKPGSSVKVSCKASGGTFTGYYMHWVRQAPGQGLEWMGWINPNSGGTNYAQKFQGRVTMTRDTSISTAYMELSRLRSDDTAVYYCARDLSSGYSGYFDYWGQGTLVTVSS
VL: DVVMTQSPLSLPVTPGEPASISCRSSQSLLHSNGYNFLDWYLQKPGQSPQLLIYLGSNRASGVPDRFSGSGSGTDFTLKISRVEADDVGVYYCMQSLQTPWTFGHGTKVEIKR
notes: Human Fab from light chain shuffling of a phage display clone; also called Fab46-19
B2: m904 anti-CD56 Fab (Fab, V domains shown)
VH: B1 VH
VL: not shown
notes: Human Fab from light chain shuffling of a phage display clone; also called Fab46-H3
B3: m903 anti-CD56 Fab (Fab, V domains shown)
VH: B1 VH
VL: not shown
notes: Human Fab from light chain shuffling of a phage display clone; also called Fab46-E5
B4: m905 anti-CD56 Fab (Fab, V domains shown)
VH: B1 VH
VL: B1 VL with F37Y, D39N, A85G, D86E, V90D, S96A, T99S, W101F, H105Q, V109L
notes: Human Fab from light chain shuffling of a phage display clone; also called Fab46-8

In the assay the target is T1, human CD56 (human, UniProt P13591 20-718, limits assumed).
T1 construct: also called neural cell adhesion molecule
As to the kind of experiment: Biacore (surface plasmon resonance), Fab. An excerpt: CD56 Fab selection: CD56-binding Fabs were selected with phage display technology in two steps, as previously described (Feng, et al. A novel human monoclonal antibody that binds with high affinity to mesothelin-expressing cells and kills them by antibody-dependent cell-mediated cytotoxicity. Mol Cancer Ther. 8(5):1113-1118 (2009)). Firstly, CD56 Fabs were identified by panning and screening of a large naïve human antibody library through multiple rounds of binding and amplification. In the second step, the selected clone with the best in vitro and in vivo binding property was affinity matured through a light chain shuffling process, where the VH of the clone was combined with the VL repertoire from the original library. The sub-library was further panned and screened with CD56 to obtain Fab clones with the same epitope but different affinities. Binding of the Fabs was confirmed with ELISA and affinities estimated with Surface Plasmon Resonance method on a Biacore Processing unit X100.
The term Kd denotes a measure of binding affinity in units of concentration. B1: the Kd was found to be 4.49 nM. The molecule B2 showed a Kd of 90.9 nM.

In turn, B3 yielded a Kd of 236 nM.

Take B4: the Kd was found to be 9.17 nM.
